The text below walks through data of US6200577A, “Anti-herpesviral agents and assays therefor” (priority 1996, dated 2001).

The target of this assay is T1, VP16/VP22trunc interaction (Human herpesvirus 1, UniProt P06492).
T1 construct: Plasmid pETVP16 was used to express full-length VP16 under the control of the T7 RNA polymerase promoter; made in house; host or cells: E. coli BL21(DE3)
Put plainly: Co-purification of VP16 with VP22trunc on Ni-NTA resin in presence of peptides. The assay is classed as binding, HSV-1. The following applies: for Co-elution of VP16 with VP22trunc from Ni-NTA resin after incubation with peptide: crude peptide at 2 mg/ml (about 1 mM), equal volume mixed with partially purified VP16 extract before VP22trunc; for Inhibition of VP16 co-elution with VP22trunc, peptides purified to homogeneity: peptides purified by reverse phase HPLC, data not shown. How it is done:
FIG. 4 Co-elution of VP16 with VP22trunc from Ni-NTA resin. Partially purified extract containing VP16 was incubated in the absence of (lane 14) or presence of […] of VP22trunc (lanes 3 to 13). In lanes 3 to 12, an equal volume of the individual peptides at 2 mg/ml was added to the extract prior to VP22trunc. Peptides added to each reaction were as follows: lane 3, peptide A; lane 4, peptide B; lane 5, peptide C; lane 6, peptide D; lane 7, peptide E; lane 8, peptide F; lane 9, peptide G; lane 10, peptide H; lane 11, peptide I; lane 12, peptide J; lane 13, no peptide. Lanes 3 to 14 show the polypeptides eluted from Ni-NTA resin. Other samples were as follows: lane 1, partially purified VP16 extract, lane 2, purified VP16; lane 15, purified VP22trunc. Samples were electrophoresed on a 12% polyacrylamide gel and the apparent molecular weights of VP16 (65 KDa) and VP22trunc (16 KDa) are shown.
Co-purification of VP16 with VP22trunc on Ni-NTA Resin. Purified VP22trunc and a partially purified extract containing VP16, both in 20 mM Tris-HCl, pH8.0, 250 mM NaCl, were mixed at 4° C. for 15 to 30 minutes on a rotator. 50 μl of equilibrated Ni-NTA resin was added to each mixture and incubation was continued at 40C for a further 15 to 30 minutes. Resin was pelleted at 800 g for 1 minute and the supernatant (non-bound fraction) was removed. Resin was washed sequentially with 0.5 ml of 20 mM Tris-HCl, pH 8.0, 250 mM NaCl, 5 mM imidazole (twice) and 0.5 ml of 20 mM Tris-HCl, pH 8.0, 250 mM NaCl, 60 mM imidazole (four times). Bound protein was eluted by addition of 50 μl of boiling mix (160 mM Tris-HCl, pH 6.7, 2% SDS, 700 mM β-mercaptoethanol, 10% glycerol, 0.002% bromophenol blue) followed by heating to 100° C. for 5 minutes. For peptide studies, peptides were dissolved in 20 mM Tris-HCl, pH8.0, 250 mM NaCl at a concentration of 2 mg/ml. Incubation of peptides with partially purified VP16 extracts was performed at ambient temperature for 2 hours prior to the addition of VP22trunc. Samples were electrophoresed on denaturing polyacrylamide gels.
Results presented in Section 2(i) had shown that VP16 co-elutes from Ni-NTA resin in the presence of VP22trunc and it was concluded that this indicated interaction between these polypeptides. The ability of synthetic peptides to inhibit this interaction was analysed by mixing them individually with the partially purified VP16 extract prior to addition of VP22trunc. From the intensity of the 65 KDa species in the crude extract (FIG. 4, lane 2), it was estimated that the concentration of VP16 was approximately […]. To ensure that experiments were performed in an excess of peptide, peptides were prepared at a concentration of 2 mg/ml (about 1 mM) and equal volumes of peptide and extract were mixed. This gave a relative molar ratio of VP16 to peptide of 1:300. However, it should be noted that certain peptides were not completely soluble (Table 1) and in those cases, the ratio would be reduced.

T1 sequence (P06492 whole entry): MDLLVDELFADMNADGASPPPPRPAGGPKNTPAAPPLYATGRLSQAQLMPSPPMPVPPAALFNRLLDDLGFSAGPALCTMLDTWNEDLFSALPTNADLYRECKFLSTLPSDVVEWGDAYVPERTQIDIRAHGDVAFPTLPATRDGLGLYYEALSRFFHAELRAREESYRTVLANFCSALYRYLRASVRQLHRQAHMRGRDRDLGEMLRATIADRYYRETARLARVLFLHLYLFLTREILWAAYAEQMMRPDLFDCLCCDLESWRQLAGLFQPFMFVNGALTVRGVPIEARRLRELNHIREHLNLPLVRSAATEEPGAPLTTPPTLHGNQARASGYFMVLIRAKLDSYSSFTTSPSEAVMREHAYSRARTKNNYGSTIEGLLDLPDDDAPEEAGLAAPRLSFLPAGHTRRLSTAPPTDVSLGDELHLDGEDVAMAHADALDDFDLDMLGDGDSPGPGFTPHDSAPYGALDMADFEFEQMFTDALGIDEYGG

Take CAAVGRLAAMHARMAAVQLW [Peptide E]: the “Co-elution of VP16 with VP22trunc from Ni-NTA resin after incubation with peptide” value is “failed to co-elute” and the “Inhibition of VP16 co-elution with VP22trunc, peptides purified to homogeneity” value was “inhibitory capabilities were retained”.
In the case of TPRVAGFNKRVFCAAVGRLA [Peptide D], the “Co-elution of VP16 with VP22trunc from Ni-NTA resin after incubation with peptide” value is given as “reduced amounts” and the “Inhibition of VP16 co-elution with VP22trunc, peptides purified to homogeneity” value is on record as “inhibitory capabilities were retained”.
